# According to the Human Domainome abundance scans (Beltran et al. 2025):
# ± gives the uncertainty stated by the source.
# B1: GAS2-like protein 1, residues 209 to 276; numbered along this chain, Q99501 (parent)
# chain: DELVREILGRCTCPDQFPMIKVSEGKYRVGDSSLLIFVRVLRSHVMVRVGGGWDTLEHYLDKHDPCRC
# Variants of: B1
# Assay: abundance fitness (aPCA) (normalised: wild type 0, dead -1); higher = more abundant; growth selection in yeast, the domain comes from the species named
# Conditions: Homo sapiens
row,Variant,abundance fitness
1,H63W,-0.233 ± 0.09
2,H63V,-0.017 ± 0.061
3,H63Q,-0.555 ± 0.18
4,H63C,-0.377 ± 0.12
5,H63E,-0.11 ± 0.17
6,H63M,-0.145 ± 0.083
7,H63T,-0.322 ± 0.16
8,H63G,-0.719 ± 0.12
9,H63F,-0.015 ± 0.092
10,H63K,-0.077 ± 0.14
11,H63R,-0.162 ± 0.046
12,H63L,-0.18 ± 0.052
13,H63Y,-0.081 ± 0.057
14,H63P,-0.455 ± 0.15
15,H63A,-0.434 ± 0.12
16,W53C,-0.485 ± 0.38
17,D64S,-1.02 ± 0.21
18,D64N,-0.86 ± 0.15
19,D64I,-0.75 ± 0.15
20,D64Y,-0.936 ± 0.14
21,D64R,-0.659 ± 0.067
22,D64A,-1.03 ± 0.18
23,D64F,-0.419 ± 0.11
24,D64M,-0.888 ± 0.13

row,Variant,abundance fitness
1,D64V,-0.927 ± 0.14
2,D64E,-0.668 ± 0.12
3,D64G,-0.792 ± 0.071
4,D64P,-0.824 ± 0.18
5,D64K,-1.12 ± 0.3
6,D64H,-0.511 ± 0.14
7,D64C,-0.319 ± 0.093
8,D64Q,-0.93 ± 0.14
9,D64T,-0.869 ± 0.21
10,D64L,-0.812 ± 0.088
11,L60I,-0.531 ± 0.095
12,L60Y,-0.822 ± 0.33
13,L60F,-0.864 ± 0.5
14,L60R,-0.889 ± 0.13
15,L60E,-0.842 ± 0.11
16,L60K,-0.838 ± 0.15
17,L60P,-0.872 ± 0.12
18,L60D,-0.584 ± 0.12
19,L60M,-0.572 ± 0.092
20,L60S,-0.928 ± 0.11
21,L60G,-0.915 ± 0.12
22,L60T,-0.994 ± 0.21
23,L60N,-0.885 ± 0.18
24,L60Q,-0.708 ± 0.19

row,Variant,abundance fitness
1,L60W,-0.9 ± 0.25
2,D54G,0.115 ± 0.42
3,D54L,-0.346 ± 0.3
4,E57D,-0.21 ± 0.2
5,E57K,-0.598 ± 0.33
6,E57C,-0.993 ± 0.18
7,E57I,-0.669 ± 0.11
8,E57V,-0.765 ± 0.15
9,E57L,-0.873 ± 0.12
10,E57S,-0.388 ± 0.052
11,E57Q,-0.235 ± 0.16
12,E57H,-0.669 ± 0.086
13,E57P,-0.922 ± 0.16
14,E57T,-0.365 ± 0.077
15,E57G,-0.627 ± 0.11
16,E57F,-0.958 ± 0.14
17,E57R,-0.899 ± 0.14
18,D61I,-0.3 ± 0.066
19,D61T,-0.183 ± 0.054
20,D61M,-0.073 ± 0.039
21,D61A,-0.074 ± 0.043
22,D61G,-0.176 ± 0.041
23,D61Y,-0.068 ± 0.061
24,D61E,0.105 ± 0.045

row,Variant,abundance fitness
1,D61F,-0.203 ± 0.056
2,D61N,-0.094 ± 0.054
3,D61W,-0.305 ± 0.049
4,D61Q,-0.123 ± 0.086
5,D61P,-0.729 ± 0.22
6,D61V,-0.246 ± 0.034
7,D61L,-0.063 ± 0.04
8,D61R,-0.212 ± 0.048
9,D61K,-0.249 ± 0.094
10,D61H,-0.274 ± 0.081
11,D61S,-0.146 ± 0.045
12,P65Y,-0.826 ± 0.16
13,P65E,-0.688 ± 0.16
14,P65N,-0.498 ± 0.27
15,P65R,-0.625 ± 0.072
16,P65Q,-0.771 ± 0.17
17,P65D,-0.757 ± 0.31
18,P65I,-0.711 ± 0.4
19,P65K,-0.734 ± 0.12
20,P65H,-0.605 ± 0.22
21,P65V,-0.904 ± 0.15
22,P65A,-0.591 ± 0.11
23,P65W,-0.857 ± 0.14
24,P65S,-0.898 ± 0.11

row,Variant,abundance fitness
1,P65C,-0.819 ± 0.22
2,P65M,-0.946 ± 0.19
3,P65G,-0.837 ± 0.11
4,C66P,-0.763 ± 0.15
5,C66T,-0.751 ± 0.083
6,C66K,-0.746 ± 0.13
7,C66W,-1.01 ± 0.2
8,C66E,-0.693 ± 0.15
9,C66V,-0.97 ± 0.14
10,C66G,-0.848 ± 0.12
11,C66H,-0.822 ± 0.4
12,C66Y,-0.594 ± 0.095
13,C66D,-0.502 ± 0.16
14,C66L,-0.875 ± 0.072
15,C66S,-0.621 ± 0.083
16,C66Q,-0.608 ± 0.13
17,C66R,-0.797 ± 0.093
18,C66A,-0.878 ± 0.085
19,C66F,-0.928 ± 0.21
20,C66I,-0.722 ± 0.17
21,C66M,-0.734 ± 0.12
22,Y59N,-1.02 ± 0.41
23,Y59I,-0.962 ± 0.21
24,Y59D,-1.03 ± 0.43

row,Variant,abundance fitness
1,Y59M,-0.767 ± 0.13
2,Y59A,-0.927 ± 0.13
3,Y59G,-0.904 ± 0.12
4,Y59P,-0.954 ± 0.14
5,Y59T,-0.862 ± 0.17
6,Y59V,-0.568 ± 0.08
7,Y59F,0.139 ± 0.11
8,Y59Q,-0.55 ± 0.12
9,Y59R,-0.886 ± 0.097
10,Y59K,-0.782 ± 0.13
11,Y59E,-0.946 ± 0.14
12,Y59L,-0.749 ± 0.073
13,Y59S,-0.583 ± 0.059
14,Y59H,-1.03 ± 0.29
15,L56W,-0.883 ± 0.15
16,L56N,-0.806 ± 0.26
17,L56E,-0.965 ± 0.24
18,L56C,-0.916 ± 0.28
19,L56M,-0.628 ± 0.12
20,L56S,-0.691 ± 0.098
21,L56G,-0.546 ± 0.062
22,L56D,-0.852 ± 0.19
23,L56A,-0.944 ± 0.12
24,L56Q,-1.13 ± 0.39

row,Variant,abundance fitness
1,L56F,-0.3 ± 0.088
2,L56V,-0.967 ± 0.11
3,L56H,-0.959 ± 0.21
4,L56Y,-0.716 ± 0.12
5,L56I,-0.485 ± 0.13
6,L56K,-0.868 ± 0.13
7,C68A,0.177 ± 0.066
8,C68H,0.058 ± 0.086
9,C68L,0.132 ± 0.05
10,C68G,0.176 ± 0.12
11,C68D,0.046 ± 0.19
12,C68S,0.118 ± 0.078
13,C68P,-0.331 ± 0.12
14,C68N,-0.078 ± 0.18
15,C68Y,0.047 ± 0.06
16,C68F,0.015 ± 0.078
17,C68W,-0.051 ± 0.086
18,C68V,0.088 ± 0.043
19,C68E,-0.024 ± 0.16
20,C68I,-0.016 ± 0.21
21,C68T,0.225 ± 0.11
22,T55H,-0.399 ± 0.15
23,T55L,-0.145 ± 0.046
